In patent publication US20240158489A1 (published 2024):
One block for each binder: values may come before it.

Legend:
Assay in all cases: -; FIG. 2B
[1] = molecular target: T1, rabbit ANG2 (rabbit, UniProt G1T9B3 19-496)
T1 chain: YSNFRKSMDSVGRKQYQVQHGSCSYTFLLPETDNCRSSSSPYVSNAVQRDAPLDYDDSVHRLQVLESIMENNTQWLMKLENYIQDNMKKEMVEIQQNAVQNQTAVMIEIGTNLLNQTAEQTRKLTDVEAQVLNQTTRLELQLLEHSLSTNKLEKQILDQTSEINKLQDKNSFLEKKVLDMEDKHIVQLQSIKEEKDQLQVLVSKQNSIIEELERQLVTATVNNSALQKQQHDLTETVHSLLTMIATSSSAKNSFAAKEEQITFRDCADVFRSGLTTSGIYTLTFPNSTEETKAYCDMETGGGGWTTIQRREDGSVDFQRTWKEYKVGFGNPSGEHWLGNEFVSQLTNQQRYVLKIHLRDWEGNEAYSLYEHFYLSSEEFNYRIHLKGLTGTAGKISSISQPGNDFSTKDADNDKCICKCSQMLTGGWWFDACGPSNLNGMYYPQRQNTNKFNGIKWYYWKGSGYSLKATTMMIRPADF

[2] = molecular target: T2, rat ANG2 (rat, UniProt O35462 19-496)
T2 chain: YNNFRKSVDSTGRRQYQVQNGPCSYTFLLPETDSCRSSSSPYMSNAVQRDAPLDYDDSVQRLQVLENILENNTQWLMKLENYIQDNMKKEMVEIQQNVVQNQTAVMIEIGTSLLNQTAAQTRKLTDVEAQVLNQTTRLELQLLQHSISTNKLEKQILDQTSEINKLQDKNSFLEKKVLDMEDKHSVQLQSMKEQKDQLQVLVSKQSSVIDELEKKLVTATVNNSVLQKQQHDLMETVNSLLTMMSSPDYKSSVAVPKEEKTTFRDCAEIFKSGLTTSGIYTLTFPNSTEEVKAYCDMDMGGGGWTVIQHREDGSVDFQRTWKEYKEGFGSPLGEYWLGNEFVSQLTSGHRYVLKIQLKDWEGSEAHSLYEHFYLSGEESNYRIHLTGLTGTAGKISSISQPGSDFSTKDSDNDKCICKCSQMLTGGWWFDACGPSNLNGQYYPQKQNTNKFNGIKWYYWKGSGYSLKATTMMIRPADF

[3] = molecular target: Rat VEGF164
[4] = molecular target: Rabbit VEGF 165
[5] = molecular target: Cyno ANG-2 (monkey)

Kd [1]: 30.4 nM
Kd [2]: 40.5 nM
B1: anti-ANG-2×VEGF bispecific antibody ABP201 (bispecific antibody)
heavy: EVQLLESGGGLVQPGGSLRLSCAASGFTFSWYEMYWVRQAPGKGLEWVSSISPSGGWTMYADSVKGRFTISRDNSKNTLYLQMNSLRAEDTAVYYCATPLYSSDYLSAGDIWGQGTMVTVSSASTKGPSVFPLAPSSKSTSGGTAALGCLVKDYFPEPVTVSWNSGALTSGVHTFPAVLQSSGLYSLSSVVTVPSSSLGTQTYICNVNHKPSNTKVDKRVEPKSCDKTHTCPPCPAPEAAGGPSVFLFPPKPKDTLMISRTPEVTCVVVDVSHEDPEVKFNWYVDGVEVHNAKTKPREEQYNSTYRVVSVLTVLHQDWLNGKEYKCKVSNKALPAPIEKTISKAKGQPREPQVYTLPPSREEMTKNQVSLTCLVKGFYPSDIAVEWESNGQPENNYKTTPPVLDSDGSFFLYSKLTVDKSRWQQGNVFSCSVMHEALHNAYTQKSLSLSPGKGGGGSGGGGSEIVLTQSPGTLSLSPGERATLSCRASQSITGSYLAWYQQKPGQAPRLLITGASSWATGIPDRFSGSGSGTDFTLTISRLEPEDFAVYYCQQYSSSPITFGCGTRLEIKGGGGSGGGGSGGGGSGGGGSQVQLVESGGGVVQPGRSLRLSCAASGFTFTNYGMHWVRQAPGKCLEWVAVISHEGNNKYYVDSVKGRFTISRDNSKNTLYLQMNSLRAEDTAVYYCAREGIDFWSGLNWFDPWGQGTLVTVS
light: EIVLTQSPATLSLSPGERATLSCRASQSVHSSYLAWYQQKPGQAPRLLIYGASSRATGIPDRFSGSGSGTDFTLTISRLEPEDFAVYYCQQSYRTPSFGQGTRLEIKRTVAAPSVFIFPPSDEQLKSGTASVVCLLNNFYPREAKVQWKVDNALQSGNSQESVTEQDSKDSTYSLSSTLTLSKADYEKHKVYACEVTHQGLSSPVTKSFNRGEC

Kd [3]: 0.62 nM
Kd [4]: 2.06 nM
Kd [5]: 29.8 nM
B2: ABP 201 (bispecific antibody)
heavy: B1 heavy
light: B1 light
